# In patent publication US20230034768A1 (BIOSION, published 2023):
# Changes are numbered by the printed parent chain. Like-named read-outs stand apart in the source and are kept apart here.
# B1: humanized antibody huD1A1-V5 (antibody, human IgG4 S228P, kappa, V domains shown)
# VH: EVQLVESGGGLVKPGGSLRLSCAASGFTFRNYAMSWVRQAPGKGLEWVSGISSGGTYTYYPDTVKGRFTISRDNAKNSLYLQMNSLRAEDTAVYYCARRDYGDVYEWYFDVWGKGTTVTVSS
# VL: DIQMTQSPSSLSASVGDRVTITCKASQDVRTSIAWYQQKPGKSPKLLIYSASYRYTGVPSRFSGSGSGTDFTFTISSLQPEDLATYYCQQHYSSPWTFGGGTKVEIKR
# notes: Human IgG4 / kappa
# B2: mouse anti-RANKL monoclonal antibody B3D8 (antibody, V domains shown)
# VH: EVQLVESGGDLVKSGGSLKLSCAASGFTFSRYGMSWVRQTPDKRLEWVASISSGGTYTSYPDSVKGRFTITRDSAKNTLYLQMSSLKSEDTAMYYCARRNFITSATDCYFDVWGAGTTVTVSS
# VL: DTVLTQSPATLSVTPGASVSLSCRASQSISNNLHWYQQKSHESPRLLIIYASQSISGIPSRFSGSGSGTDFTLSINSVETEDFGVYFCQQSNSWPFTFGGGTKLEIK
# notes: Hybridoma-derived mouse IgG; also called Mouse B3D8
# B3: Chimeric D1A1 (antibody, human IgG2, kappa, V domains shown)
# VH: EVQLVESGGGLVKSGGSLKLSCAASGFTFRNYAMSWVRQTPEKRLEWVAGISSGGTYTYYPDTVKGRFTISRDNARNTLFLQMSSLRSEDTAMYYCARRDYGDVYEWYFDVWGTGTTVTVSS
# VL: DIVMTQSHKFMSTSVGDRVSITCKASQDVRTSIAWYQQKPGQSPNLLIYSASYRYTGVPDRFTGSGSGTDFTFTISSVQAEDLAVYYCQQHYSSPWTFGGGTKLEIKR
# notes: Mouse variable regions on human IgG2 / kappa; also called chimeric antibody D1A1; chimeric D1A1 antibody
# Legend:
# [1] = target: T1, Recombinant human RANKL-his protein (R&D, Cat #6449-TEC-010) (human, UniProt O14788 140-317, limits assumed); assay: cell-based or functional assay
# T1 sequence (looked up): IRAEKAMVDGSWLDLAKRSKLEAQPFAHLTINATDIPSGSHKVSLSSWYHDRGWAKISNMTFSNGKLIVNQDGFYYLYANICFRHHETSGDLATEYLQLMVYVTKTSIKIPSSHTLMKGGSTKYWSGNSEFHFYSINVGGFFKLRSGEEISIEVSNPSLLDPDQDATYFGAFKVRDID
# [2] = target: T2, biotin-labeled human RANKL-Fc protein (prepared in house, SEQ ID NO.: 40) (human, biotin-labeled (sites not given)); assay: competitive ELISA: antibody blocks biotin-labeled human RANKL-Fc binding to coated human RANK-Fc
# T2 construct: also called RANKL-Fc-biotin
# Method: (§1) Briefly, human RANK-Fc proteins (prepared in house, SEQ ID NO.: 41) were coated on 96-well micro plates at 2.0 μg/mL in PBS, 100 μl/well, and incubated overnight at 4° C. The next day, plates were washed with wash buffer (PBS+0.05% w/v Tween-20, PBST), and blocked with 5% w/v non-fatty milk in PBST, 200 μl/well, for 2 hours at 37° C.
# (§2) Plates were washed 4 times using wash buffer, and added and incubated with 100 μl/well of streptavidin conjugated HRP (1:10000 dilution in PBST buffer, Jackson ImmunoResearch Laboratories, Inc., Cat #016-030-084) for 40 minutes at 37° C. Plates were washed again using wash buffer. Finally, TMB was added and the reaction was stopped using 1M H₂SO₄, and the absorbance of each well was read on a microplate reader using dual wavelengths mode with 450 nm for TMB and 630 nm as the reference wavelength. The OD (450-630) values were plotted against antibody concentration. Data were analyzed using Graphpad Prism software and IC₅₀ values were reported.
# [3] = target: T3, human RANKL-his protein (prepared in-house with SEQ ID NO: 43) (human, UniProt O14788 136-317); assay: Biacore T200 SPR, antibody captured by anti-human IgG, human RANKL-his in flow, 1:1 fit
# T3 construct: also called recombinant human RANKL-his
# T3 chain: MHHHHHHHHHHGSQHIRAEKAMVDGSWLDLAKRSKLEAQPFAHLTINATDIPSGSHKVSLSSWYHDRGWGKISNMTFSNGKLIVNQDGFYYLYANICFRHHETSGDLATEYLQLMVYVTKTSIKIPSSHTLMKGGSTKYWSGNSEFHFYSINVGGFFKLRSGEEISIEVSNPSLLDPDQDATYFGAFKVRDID
# Method: (§3) Briefly, goat anti-human IgG (GE healthcare, Cat #BR100839, Human Antibody Capture Kit) was covalently linked to a CM5 chip (carboxy methyl dextran coated chip from GE healthcare #BR10030) via primary amines, using a standard amine coupling kit provided by Biacore. Un-reacted moieties on the biosensor surface were blocked with ethanolamine. […] The antigen-antibody association kinetics was followed for 2 minutes and the dissociation kinetics was followed for 10 minutes. The association and dissociation curves were fit to a 1:1 Langmuir binding model using BIAcore evaluation software.
# [4] = target: T3, human RANKL-his protein (prepared …); assay: Octet BLI, antibody from cell supernatant captured, human RANKL-his in solution
# Method: (§4) Briefly, AHC/AMC biosensors (anti-human/anti-mouse IgG Fc capture, ForteBio) were presoaked with 10 mM glycine (pH 1.5) for 3 seconds, and then dipped in a well with running buffer (0.5% w/v BSA in PBST) for 3 seconds, the soaking and dipping steps were repeated for three times. […] A new baseline was run for 180 seconds in another well with HBS-EP⁺. […] Finally, sensors were presoaked with 10 mM glycine (pH 1.5) for 3 seconds, and then dipped in a well with running buffer for 3 seconds, the soaking and dipping steps repeated for three times. The association and dissociation curves were fit to a 1:1 Langmuir binding model using Octet evaluation software.
# (§5) The chimeric antibody when tested was in HBS-EP⁺ at 5 μg/ml concentration.
# [5] = target: T2, biotin-labeled human RANKL-Fc protein …; assay: capture ELISA: captured antibody, biotin-labeled human RANKL-Fc, OD(450-630)
# Method: (§6) Plates were washed once with wash buffer (PBS+0.05% v/v Tween-20, PBST) and then blocked with 200 μl/well blocking buffer (5% w/v non-fatty milk in PBST) for 2 hours at 37° C. […] After a final wash, plates were incubated with 100 μl/well ELISA substrate TMB (Innoreagents, Cat #TMB-S-002) at room temperature. The reaction was stopped in 3-10 minutes with 50 μl/well 1M H₂SO₄, and the absorbance of each well was read on a microplate reader using dual wavelengths mode with 450 nm for TMB and 630 nm as the reference wavelength. The OD (450-630) values were plotted against antibody concentration. Data were analyzed using Graphpad Prism software and EC₅₀ values were reported.
# For the capture ELISA, 96-well micro plates were coated with 2 μg/ml goat anti-human IgG (AffiniPure Goat Anti-Human IgG, F(ab′)₂ fragment specific, Jackson Immunoresearch, Cat #109-005-097) instead of AffiniPure Goat Anti-Mouse IgG, Fcγ fragment specific, 100 μl/well.
# [6] = target: T2, biotin-labeled human RANKL-Fc protein …; assay: competitive ELISA: antibody blocks biotin-labeled human RANKL-Fc binding to coated benchmark denosumab
# [7] = target: T4, cynomolgus monkey RANKL-his protein (prepared in-house with SEQ ID NO.:42) (cynomolgus monkey, UniProt O14788 136-317 (human entry), limits assumed); assay: Biacore T200 SPR, antibody captured by anti-human IgG, cynomolgus RANKL-his in flow, 1:1 fit
# T4 construct: also called Cynomolgus RANKL
# T4 chain: T3 chain with S53T, G70A, I167V
# Method: as §3
# [8] = target: T1, Recombinant human RANKL-his protein …; assay: cell-based or functional assay; remark: listed apart in the source
# [9] = target: T2, biotin-labeled human RANKL-Fc protein …; assay: capture ELISA: captured antibody, biotin-labeled human RANKL-Fc, OD(450-630); remark: listed apart in the source
# Method: as §6
# [10] = target: T3, human RANKL-his protein (prepared …); assay: Octet BLI, antibody captured on AHC/AMC sensor, human RANKL-his in solution, 1:1 fit
# Method: as §4
# [11] = target: T3, human RANKL-his protein (prepared …); assay: Octet BLI, antibody captured, human RANKL-his in solution (same value as Table 2)
# Method: as §4
# [12] = target: T1, Recombinant human RANKL-his protein …; assay: cell-based or functional assay; remark: listed apart in the source
# [13] = target: T2, biotin-labeled human RANKL-Fc protein …; assay: competitive ELISA: antibody blocks biotin-labeled human RANKL-Fc binding to coated benchmark denosumab; remark: listed apart in the source
# Method: The next day, plates were washed with wash buffer, and blocked with 5% w/v non-fatty milk in PBST, 200 μl/well, for 2 hours at 37° C. […] After incubation at 37° C. for 40 minutes, plates were washed 4 times using wash buffer. Then the plates were added and incubated with 100 μl Peroxidase Streptavidin (1:5000 dilution in PBST buffer, Jackson Immunoresearch, Cat #016-030-084) for 40 minutes at 37° C. Plates were washed again using wash buffer. Finally, TMB was added and the reaction was stopped using 1M H₂SO₄. The absorbance of each well was read on a microplate reader using dual wavelengths mode with 450 nm for TMB and 630 nm as the reference wavelength, and the OD (450-630) values were plotted against antibody concentration. Data were analyzed using Graphpad Prism software and IC₅₀ values were reported.
# [14] = target: T2, biotin-labeled human RANKL-Fc protein …; assay: competitive ELISA: antibody blocks biotin-labeled human RANKL-Fc binding to coated human RANK-Fc; remark: listed apart in the source
# Method: as §1, §2
# [15] = target: T2, biotin-labeled human RANKL-Fc protein …; assay: capture ELISA: captured antibody, biotin-labeled human RANKL-Fc, OD(450-630); remark: listed apart in the source
# Method: as §6
# (§7) Cell supernatants were harvested after six days in shaking flasks, spun down to pellet cells, and then chimeric antibodies were purified from cell supernatants as described above. The purified antibodies were tested in the capture ELISA, competitive ELISA assay and Octet affinity test following the protocols in the foregoing Examples.
# [16] = target: T2, biotin-labeled human RANKL-Fc protein …; assay: competitive ELISA: antibody blocks biotin-labeled human RANKL-Fc binding to coated benchmark denosumab; remark: listed apart in the source
# [17] = target: T1, Recombinant human RANKL-his protein …; assay: cell-based or functional assay; remark: listed apart in the source
# [18] = target: T3, human RANKL-his protein (prepared …); assay: Octet BLI, chimeric antibody at 5 ug/ml captured, human RANKL-his in solution
# Method: as §4, §5
# [19] = target: T3, human RANKL-his protein (prepared …); assay: Octet BLI, antibody captured, human RANKL-his in solution
# Method: as §4, §7
# [20] = target: T2, biotin-labeled human RANKL-Fc protein …; assay: competitive ELISA: antibody blocks biotin-labeled human RANKL-Fc binding to coated human RANK-Fc; remark: listed apart in the source
binder,measurement,setting,value
B1,"IC50, RANKL-induced osteoclast differentiation of RAW264.7 cells (pNPP, OD405)",[1],1.51 nM
same,IC50,[2],0.139 nM
same,Kd,[3],0.179 nM
same,Kd,[4],< 0.001 nM
same,koff,[4],< 1e-07 s⁻¹
same,kon,[4],120000 M⁻¹ s⁻¹
same,EC50,[5],0.182 nM
same,IC50,[6],0.338 nM
same,Kd,[7],0.414 nM
same,"IC50, RANKL-induced osteoclast differentiation of RAW264.7 cells (pNPP, OD405)",[8],~1.42 nM
B2,EC50,[9],0.162 nM
same,Kd,[10],0.452 nM
same,koff,[10],0.000277 s⁻¹
same,kon,[10],613000 M⁻¹ s⁻¹
same,Kd,[11],0.452 nM
same,"IC50, RANKL-induced osteoclast differentiation of RAW264.7 cells (pNPP, OD405)",[12],0.625 nM
same,IC50,[13],0.548 nM
same,IC50,[14],0.233 nM
same,EC50,[15],0.489 nM
B3,IC50,[16],0.473 nM
same,"IC50, RANKL-induced osteoclast differentiation of RAW264.7 cells (pNPP, OD405)",[1],~1.42 nM
same,IC50,[2],0.155 nM
same,Kd,[3],0.149 nM
same,"IC50, RANKL-induced osteoclast differentiation of RAW264.7 cells (pNPP, OD405)",[17],1.39 nM
same,Kd,[18],< 0.001 nM
same,koff,[18],< 1e-07 s⁻¹
same,kon,[18],128000 M⁻¹ s⁻¹
same,Kd,[19],0.197 nM
same,EC50,[5],0.257 nM
same,IC50,[6],0.441 nM
same,Kd,[7],0.42 nM
same,IC50,[20],0.112 nM
same,EC50,[15],0.624 nM
